In patent US8637739B2, “Anti-nematode peptides and methods of use thereof” (Pioneer Hi Bred International Inc, priority 2011, dated 2014):

Test system: C. elegans
Test: C. elegans feeding assay
Assay type: in vivo, Caenorhabditis elegans
Procedure: The 75G5 strain was obtained from a biodiverse collection of bacterial strains. The strain was grown in Tryptic soy medium overnight at 20° C., with shaking at 225 rpm. 5 to 30 μL of the liquid culture was added into assay wells in 96-well plates. Each assay well contained 120 μL of liquid with ˜50 L1 staged C. elegans, 30 μg/mL tetracycline, 30 μg/mL chloramphenicol, and S-medium. E. coli strain OP50 was used as a negative control. Forty-eight hours later, the assay plates were scored under a microscope by checking the worm's growth and development.
To further characterize the nematicidal activity, the 75G5 strain was cultured in 50 ml Tryptic soy medium at 20° C. for 18 h, with 225 rpm shaking. The cell pellet was collected after centrifugation at 700 rpm and then stored at −80 C. Total protein was extracted from the cell pellet using the B-PER II Bacterial Protein Extraction Reagent from Thermo. The lysate was centrifuged twice at 10,000 rpm and the final supernatant was collected as the total protein sample.
The expression constructs were then transformed into E. coli TOP10 strain with carbenicillin selection. For protein expression, an E. coli overnight culture was diluted by 50 fold and grown at 37° C. for 2.5 hours (to OD600 ˜0.5). Protein expression was induced by adding 0.8 mM IPTG and the culture was grown for another 5 hours at 30° C. […]

B1: RX025: small, active 25 kDa Sphingobacterium spiritivorum protein; putative twin arginine translocation pathway signal protein (protein, listed as Sphingobacterium spiritivorum)
chain: MHRREALQRVALLMGGTVIGANLFLEGCSRSASKDTAKLFEKDSVNFLGDLAEAILPKTSTPGAKEAGVGEFIPVMIRDCYADTEQKVFLDGINTVDERAKKEFGKKFQELSKEDQTKFVNILDKEASEYNAKQAEATKAQREKDALKQNEMYRVPKSDPPHWFTMFKQLTLTGFFTSELGATKALRYVKIPGKFDGNYPYKKGEHAWA
nematicidal activity (worm development) (E. coli TOP10 strains expressing the RX025 gene from pMAL (MBP fusion) and pQE80L, IPTG induced): inhibited worm development, arresting worms at the L1 stage
nematicidal activity of purified protein bands (proteins in pooled Mono Q/Mono S fractions of strain 75G5 membrane associated proteins): active
